Earlier results on one substance are cited in publication PMC5760685.

The target of this data set is CRHR1 (UniProt P34998).
Chain of UniProt P34998 (P34998 24-415): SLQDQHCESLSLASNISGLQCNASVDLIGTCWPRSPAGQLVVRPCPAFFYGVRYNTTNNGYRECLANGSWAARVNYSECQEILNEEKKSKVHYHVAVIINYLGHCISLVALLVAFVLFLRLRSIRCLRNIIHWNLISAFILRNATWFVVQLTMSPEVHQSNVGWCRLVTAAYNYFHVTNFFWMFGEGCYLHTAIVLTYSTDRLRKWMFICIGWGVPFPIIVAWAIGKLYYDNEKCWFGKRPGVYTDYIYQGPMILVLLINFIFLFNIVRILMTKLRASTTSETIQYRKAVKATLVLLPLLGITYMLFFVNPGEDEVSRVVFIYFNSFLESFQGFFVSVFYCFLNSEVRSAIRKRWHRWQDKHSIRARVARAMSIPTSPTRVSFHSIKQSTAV

In the case of CRH (from UniProt P06850), the dissociation constant (Kd) is 3 nM.
